Measured values as given in patent publication US12295987B2, “Method of using a GIP/GLP1 co-agonist for diabetes” (Eli Lilly and Company, priority 2018, dated 2025).

Molecular target: T1, human gastric inhibitory peptide receptor (hGIPR) (Homo sapiens, UniProt P48546)
T1 construct: expressed in transfected cells; host or cells: HEK293
T1 sequence (P48546 22-466): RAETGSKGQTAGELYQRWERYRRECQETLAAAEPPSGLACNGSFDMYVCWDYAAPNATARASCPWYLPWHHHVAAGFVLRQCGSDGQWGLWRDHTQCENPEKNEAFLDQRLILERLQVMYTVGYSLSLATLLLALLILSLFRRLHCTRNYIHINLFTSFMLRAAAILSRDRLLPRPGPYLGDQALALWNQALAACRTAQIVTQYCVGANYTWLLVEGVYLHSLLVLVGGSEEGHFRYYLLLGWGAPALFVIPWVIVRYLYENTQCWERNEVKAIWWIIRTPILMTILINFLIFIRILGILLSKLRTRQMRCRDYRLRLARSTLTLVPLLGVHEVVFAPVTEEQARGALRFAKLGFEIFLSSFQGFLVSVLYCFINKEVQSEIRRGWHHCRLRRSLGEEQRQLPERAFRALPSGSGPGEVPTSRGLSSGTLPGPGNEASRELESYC
Assay: cAMP pharmacological functional assay in presence of 0.1% casein, hGIPR
Type: cell-based
Settings: ratio of hGIPR to hGLP1R cAMP EC50 ratios

Row | Substance | [hGIPR/hGLP1R] EC50 Ratio
1 | Y-Aib-EGT-αMeF-TSDYSI-Aib-LDEK((2-[2-(2-Amino-ethoxy)-ethoxy]-acetyl)2-(γGlu)-CO—(CH2)18—CO2H)AQ-Aib-EFI-(D-Glu)-YLIEGGPSSGAPPPS-NH2 (YXEGTXTSDYSIXLDEKAQXEFIXYLIEGGPSSGAPPPS; Aib, αMeF, D-Glu; lipidated K; amide; (2)..(2) Xaa at position 2 is Aib; (6)..(6) Xaa at position 6 is alpha-methyl-Phe; (13)..(13) Xaa at position 13 is Aib; MOD_RES (17)..(17) Lys at position 17 is chemically modified by conjugation of the epsilon-amino group of the Lys side chain with (2-[2-(2-amino-ethoxy)-ethoxy]-acetyl)2-(gamma-Glu)-CO-(CH2)18- CO2H; (20)..(20) Xaa at position 20 is Aib; (24)..(24) Xaa at position 24 is D-Glu; M) [Peptide 225] | 3.80
2 | Y-Aib-EGT-αMeF-TSDYSI-αMeL-LDEK((2-[2-(2-Amino-ethoxy)-ethoxy]-acetyl)2-(γGlu)-CO—(CH2)16—CO2H)AQ-Aib-EFI-(D-Glu)-YLIEGGPSSGAPPPS-NH2 (YXEGTXTSDYSIXLDEKAQXEFIXYLIEGGPSSGAPPPS; Aib, αMeF, αMeL, D-Glu; lipidated K; amide; (2)..(2) Xaa at position 2 is Aib; (6)..(6) Xaa at position 6 is alpha-methyl-Phe; (13)..(13) Xaa at position 13 is alpha-methyl-Leu; MOD_RES (17)..(17) Lys at position 17 is chemically modified by conjugation of the epsilon-amino group of the Lys side chain with (2-[2-(2-amino-ethoxy)-ethoxy]-acetyl)2-(gamma-Glu)-CO-(CH2)16- CO2H; (20)..(20) Xaa at position 20 is Aib; (24)..(24) Xaa at position 2) [Peptide 213] | 5.58
3 | Y-Aib-EGT-αMeF-TSDYSI-αMeL-LDEK((2-[2-(2-Amino-ethoxy)-ethoxy]-acetyl)2-(γGlu)-CO—(CH2)18—CO2H)AQ-Aib-AFIEYLIEGGPSSGAPPPS-NH2 (YXEGTXTSDYSIXLDEKAQXAFIEYLIEGGPSSGAPPPS; Aib, αMeF, αMeL; acylated lysine C20 diacid; amide; (2)..(2) Xaa at position 2 is Aib; (6)..(6) Xaa at position 6 is alpha-methyl-Phe; (13)..(13) Xaa at position 13 is alpha-methyl-Leu; MOD_RES (17)..(17) Lys at position 17 is chemically modified by conjugation of the epsilon-amino group of the Lys side chain with (2-[2-(2-amino-ethoxy)-ethoxy]-acetyl)2-(gamma-Glu)-CO-(CH2)18- CO2H; (20)..(20) Xaa at position 20 is Aib; MOD_RES (39)..(39) Ser at po) [Peptide 115] | 2.49
4 | Y-Aib-EGT-αMeF-TSDYSI-αMeL-LDEK((2-[2-(2-Amino-ethoxy)-ethoxy]-acetyl)2-(γGlu)-CO—(CH2)18—CO2H)AQ-Aib-EFI-(D-Glu)-YLIEGGPSSGAPPPS-NH2 (YXEGTXTSDYSIXLDEKAQXEFIXYLIEGGPSSGAPPPS; Aib, αMeF, αMeL, D-Glu; lipidated K; amide; (2)..(2) Xaa at position 2 is Aib; (6)..(6) Xaa at position 6 is alpha-methyl-Phe; (13)..(13) Xaa at position 13 is alpha-methyl-Leu; MOD_RES (17)..(17) Lys at position 17 is chemically modified by conjugation of the epsilon-amino group of the Lys side chain with (2-[2-(2-amino-ethoxy)-ethoxy]-acetyl)2-(gamma-Glu)-CO-(CH2)18- CO2H; (20)..(20) Xaa at position 20 is Aib; (24)..(24) Xaa at position 2) [Peptide 227] | 4.42
5 | Y-Aib-EGT-αMeF-TSDYSI-αMeL-LDKK((2-[2-(2-Amino-ethoxy)-ethoxy]-acetyl)2-(γGlu)2-CO—(CH2)18—CO2H)AQ-Aib-AFIEYLIEGGPSSGAPPPS-NH2 (YXEGTXTSDYSIXLDKKAQXAFIEYLIEGGPSSGAPPPS; Aib, αMeF, αMeL; acylated lysine C20 diacid; amide; (2)..(2) Xaa at position 2 is Aib; (6)..(6) Xaa at position 6 is alpha-methyl-Phe; (13)..(13) Xaa at position 13 is alpha-methyl-Leu; MOD_RES (17)..(17) Lys at position 17 is chemically modified by conjugation of the epsilon-amino group of the Lys side chain with (2-[2-(2-amino-ethoxy)-ethoxy]-acetyl)2-(gamma-Glu)2-CO-(CH2)18- CO2H; (20)..(20) Xaa at position 20 is Aib; MOD_RES (39)..(39) Ser at p) [Peptide 125] | 2.89
6 | Y-Aib-EGT-αMeF-TSDYSI-αMeL-LDKK((2-[2-(2-Amino-ethoxy)-ethoxy]-acetyl)2-(γGlu)-CO—(CH2)18—CO2H)AQ-Aib-AFIEYLIEAGPSSGAPPPS-NH2 (YXEGTXTSDYSIXLDKKAQXAFIEYLIEAGPSSGAPPPS; Aib, αMeF, αMeL; acylated lysine C20 diacid; amide; (2)..(2) Xaa at position 2 is Aib; (6)..(6) Xaa at position 6 is alpha-methyl-Phe; (13)..(13) Xaa at position 13 is alpha-methyl-Leu; MOD_RES (17)..(17) Lys at position 17 is chemically modified by conjugation of the epsilon-amino group of the Lys side chain with (2-[2-(2-amino-ethoxy)-ethoxy]-acetyl)2-(gamma-Glu)-CO-(CH2)18- CO2H; (20)..(20) Xaa at position 20 is Aib; MOD_RES (39)..(39) Ser at po) [Peptide 126] | 2.91
7 | Y-Aib-EGT-αMeF-TSDYSI-αMeL-LDKK((2-[2-(2-Amino-ethoxy)-ethoxy]-acetyl)2-(γGlu)-CO—(CH2)18—CO2H)AQ-Aib-AFIEYLIEGGPSSGAPPPS-NH2 (YXEGTXTSDYSIXLDKKAQXAFIEYLIEGGPSSGAPPPS; Aib, αMeF, αMeL, lipidated Lys, C-terminal amide; (2)..(2) Xaa at position 2 is Aib; (6)..(6) Xaa at position 6 is alpha-methyl-Phe; (13)..(13) Xaa at position 13 is alpha-methyl-Leu; MOD_RES (17)..(17) Lys at position 17 is chemically modified by conjugation of the epsilon-amino group of the Lys side chain with (2-[2-(2-amino-ethoxy)-ethoxy]-acetyl)2-(gamma-Glu)-CO-(CH2)18- CO2H; (20)..(20) Xaa at position 20 is Aib; MOD_RES (39)..(39) Ser at po) [Peptide 69] | 3.21
